Here are results for 13 sequences from paper PMC5003356.

In one series the target is T1, P54nrb-HIS (UniProt Q15233).
T1 sequence: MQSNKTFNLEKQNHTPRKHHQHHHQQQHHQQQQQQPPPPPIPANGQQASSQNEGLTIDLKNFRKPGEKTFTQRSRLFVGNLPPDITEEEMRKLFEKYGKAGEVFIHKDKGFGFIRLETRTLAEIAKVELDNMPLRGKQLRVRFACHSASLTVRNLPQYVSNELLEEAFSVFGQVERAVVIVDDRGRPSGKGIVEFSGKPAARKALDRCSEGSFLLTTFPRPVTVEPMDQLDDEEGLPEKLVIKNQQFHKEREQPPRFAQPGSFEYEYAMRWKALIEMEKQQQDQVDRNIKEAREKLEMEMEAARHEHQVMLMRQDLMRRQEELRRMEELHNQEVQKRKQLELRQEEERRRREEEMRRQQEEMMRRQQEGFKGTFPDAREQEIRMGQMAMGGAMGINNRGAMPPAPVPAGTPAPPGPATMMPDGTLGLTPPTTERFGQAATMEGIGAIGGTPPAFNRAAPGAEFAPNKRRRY
Kind of series: competition FP. Particulars: 3-10-3 cEt gap-mer; BRET: 1X binding buffer (0.1 M potassium acetate, 20 mM Tris pH 7.5, 1 mM EDTA, 0.01% NP-40), room temperature, 15 min; FP in the same buffer; c-Jun in OptiMEM …. A general note: Bioluminescence resonance energy transfer reports proximity on the nanometre scale.

Series [1] deals with T2, NLuc-La dR1/R2 internal_change (UniProt P05455).
T2 sequence: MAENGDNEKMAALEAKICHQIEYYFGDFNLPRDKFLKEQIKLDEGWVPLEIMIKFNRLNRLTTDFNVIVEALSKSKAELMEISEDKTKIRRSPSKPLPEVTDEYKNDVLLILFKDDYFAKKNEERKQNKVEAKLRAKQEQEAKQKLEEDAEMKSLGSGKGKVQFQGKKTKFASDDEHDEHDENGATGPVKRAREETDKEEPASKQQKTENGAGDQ
Kind of series: BRET. Particulars: PS; 5-10-5 (S)-cEt gap-mer; BRET: 1X binding buffer (0.1 M potassium acetate, 20 mM Tris pH 7.5, 1 mM EDTA, 0.01% NP-40), room temperature, 15 min; FP in the same buffer; c-Jun in OptiMEM ….

For orientation: Kd means a measure of binding affinity in units of concentration. In turn, AACATGTCTGCCAGGG [660956] had a Kd with P54nrb-HIS of 33 nM.

As to ACCCTGCCACGATGTA [660992], the Kd with P54nrb-HIS worked out at 95.1 nM. This Kd lies about 2.9-fold higher than the previous one.

For CCACTGCGCAGGCCAG [660935], the Kd with P54nrb-HIS came to 337 nM. With CCAGCGGGTGGACTGT [660923], the equilibrium dissociation constant (Kd) with P54nrb-HIS is 38.3 nM. This Kd lies about 8.8-fold lower than the previous one. The same measure, in the same setting: as for CCCTCCCTCCCGCTAG [661121], the figure is 19.5 nM.

Turning to “CTGCTAGCCTCTGGATTTGA [766636 cEt gap-mer]”, the binding signal (fold lower affinity than full length) in series [1] is 50. For the sequence CTGGGAACTGGTCACC [660899], the dissociation constant Kd in the series with P54nrb-HIS is 119 nM. Still for that read-out and setting: as for CTTCTAGCCACTGGCT [661010], the figure is 326 nM. The same measure, in the same setting: next, GGGAGGAGGACAGCTC [660908]: 4.6 nM; GTTAAGAAGGCTGTCC [661073]: 260 nM; TCAGTCATGGTATAAA [661115]: 86.9 nM. Still for that read-out and setting: as for TCCACAGAGCGGACTG [660965], the figure is 310 nM; as for TGAGAAGATCTCCCGG [661103], 33.6 nM.
